This series can be described thus: protein stability index of a GFP-peptide fusion (GPS, HEK-293T) (PSI 1-6); higher = more stable. The settings on record: c terminus: a fixed tail appended.

± gives the standard deviation.
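Further: 24-mer peptide tiles fused after GFP, lentivirally expressed, FACS-sorted into six equal bins by GFP/DsRed ratio, decoded by Illumina sequencing, PSI is the read-weighted mean bin number.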

Take RTIVEEVQDGKVISSREQVHQTTR [KRT17]: the protein stability index is, setting by setting: (treatment: DMSO) 4.69 ± 0.25; (treatment: MLN4924 1 uM, 8 h) 5.01 ± 0.38.
The matching figures for RTLASGRLLSYRGERVAARGYWGD [DNAAF3]: 2.96 ± 0.17 and 3.08 ± 0.19.
The matching figures for RVLQNLLTIEERYLPQCSYFKCVQ [CCND2]: 3.08 ± 0.22 and 2.69 ± 0.57.
The matching figures for RVQQHIESKLLGSNSSRMYFTQTL [MLH1]: 2.37 ± 0.23 and 2.29 ± 0.38.
In the case of RVRGLGLPKLYLPTGPRRGRDELG [CDKN1A], the protein stability index reads like this: (treatment: DMSO) 3.33 ± 0.58; (treatment: MLN4924 1 uM, 8 h) 3.43 ± 0.057.
The matching figures for RYMLTRDYLTVKVWDLNMEARPIE [PPP2R2C]: 2.51 ± 0.3 and 2.37 ± 0.24.
As for SACTVALHIFQLNEDGPSSENLEE [TRIP13], the protein stability index runs as follows: (treatment: DMSO) 3.23 ± 0.2; (treatment: MLN4924 1 uM, 8 h) 3.33 ± 0.19.
Consider SALGRQRLQDISSLPLPQSLKNYL [SPSB4], for which the protein stability index by setting is: (treatment: DMSO) 2.85 ± 0.11; (treatment: MLN4924 1 uM, 8 h) 3.27 ± 0.6.
The matching figures for SASEEEDTKPKPTKRKRKGSSAVG [INTS3]: 5.23 ± 0.23 and 5.38 ± 0.16.
As to SAWSNIQEAPLQDDSCLNNDIPHS [FAN1], the protein stability index was found to be 4.98 ± 0.2 (treatment: DMSO) and 5.07 ± 0.067 (treatment: MLN4924 1 uM, 8 h).
The matching figures for SCKENCTCSSCLLRAPTISDLLND [EDARADD]: 4.85 ± 0.41 and 4.83 ± 0.33.
The matching figures for SDGILRGNGTGYLPGRGRVLSSWS [RHOBTB2]: 3.42 ± 0.2 and 3.26 ± 0.3.
With SDVVDWLYHNVEGFTDRREARKYA [DVL3], the protein stability index is 3.23 ± 0.31 (treatment: DMSO) and 3.53 ± 0.33 (treatment: MLN4924 1 uM, 8 h).
The matching figures for SEDVNWGYEKRNLARVPKLDLKRQ [CHGB]: 4.34 ± 0.3 and 4.27 ± 0.25.
The matching figures for SEEYQQAQHKFLVAVESMEPNNIV [TCF25]: 4.26 ± 0.22 and 4.29 ± 0.15.
On to SEFQAALSRKVAELVHFLLLKYRA [MAGEA3], for which the protein stability index was 2.57 ± 0.56 (treatment: DMSO) and 2.48 ± 0.51 (treatment: MLN4924 1 uM, 8 h).
The matching figures for SEGFESDSSHDSARASEGSDSGSD [SMG5]: 5.51 ± 0.3 and 5.7 ± 0.1.
The matching figures for SELEDLTEPEQRELKTKLTKLEAE [TPD52L3]: 5.31 ± 0.45 and 5.6 ± 0.15.
The matching figures for SFRKFRYGYNNVVTIPAGATHILV [ADAMTS4]: 2.64 ± 0.28 and 2.99 ± 0.51.
Regarding SGAAASLNVDAAVQQWLQKGTPAS [CHIT1], the protein stability index by setting is: (treatment: DMSO) 4.12 ± 0.33; (treatment: MLN4924 1 uM, 8 h) 4.01 ± 0.35.
The matching figures for SGIPEVKCYLNGVKVPGIVRLRTL [CLCN6]: 2.4 ± 0.53 and 1.91 ± 0.35.
The matching figures for SGKESPPVSDTPDEGDEPMPIPED [IKZF1]: 5.866 ± 0.015 and 5.71 ± 0.38.
Regarding SGPMQAALQAAAHASVDIKDVLDF [SMG5], the protein stability index (treatment: DMSO) is 4.42 ± 0.17 and the protein stability index (treatment: MLN4924 1 uM, 8 h) stood at 4.18 ± 0.1.
The matching figures for SGYHYGVWSCEGCKAFFKRSIQGH [ESR2]: 2.03 ± 0.33 and 2.52 ± 0.41.
The matching figures for SKAKPKPPKQAQKEQRKQMKGRGQ [TBC1D10A]: 5.02 ± 0.23 and 5.08 ± 0.31.
SLFCYEDQEAVCLICAISHTHRAH [TRIM39] yielded a protein stability index (treatment: DMSO) of 2.15 ± 0.19 and a protein stability index (treatment: MLN4924 1 uM, 8 h) of 2.19 ± 0.2.
The matching figures for SLGQMKELGVIFYNCSCLVLDLQR [PLD5]: 2.44 ± 0.64 and 2.93 ± 0.48.
Consider SLHVDDRERMELLEEAKKMEMAKF [RIPK4], for which the protein stability index reads like this: (treatment: DMSO) 4.92 ± 0.42; (treatment: MLN4924 1 uM, 8 h) 4.76 ± 0.15.
In the case of SLNALEDQDLDALMADLVADISEA [APBB1IP], the protein stability index was found to be 4.58 ± 0.15 (treatment: DMSO) and 4.36 ± 0.23 (treatment: MLN4924 1 uM, 8 h).
With SLVAILLVFLITAILVKVQLDALP [SLC29A1], the protein stability index reads like this: (treatment: DMSO) 2.35 ± 0.6; (treatment: MLN4924 1 uM, 8 h) 2.54 ± 0.58.
SLVGNLGISGTTTKKGDLQWNAGE [SNAP91]: the protein stability index runs as follows: (treatment: DMSO) 3.54 ± 0.39; (treatment: MLN4924 1 uM, 8 h) 3.62 ± 0.23.
As for SNMKSRYTTEFHELEKIGSGEFGS [WEE1], the protein stability index is, setting by setting: (treatment: DMSO) 3.9 ± 0.31; (treatment: MLN4924 1 uM, 8 h) 4.04 ± 0.19.
Turning to SNSQPTNESHSIKAILKNISVLAF [SLC29A1], the protein stability index runs as follows: (treatment: DMSO) 2.45 ± 0.46; (treatment: MLN4924 1 uM, 8 h) 2.43 ± 0.29.
In the case of SNVGTAISKKFGDMSYSIRHSISM [TPD52L1], the protein stability index came to 2.19 ± 0.49 (treatment: DMSO) and 2.26 ± 0.45 (treatment: MLN4924 1 uM, 8 h).
The matching figures for SPFSGSLHAPPAFYSTSSGLANGL [VENTX]: 2.89 ± 0.048 and 2.96 ± 0.17.
The matching figures for SPGKQPGENSDCHRDSSQAIPITE [ZNF8]: 5.4 ± 0.17 and 5.429 ± 0.041.
On to SPNPFPEISRGEYLYTYDSQITDS [ZNF8], for which the protein stability index reads like this: (treatment: DMSO) 4.08 ± 0.17; (treatment: MLN4924 1 uM, 8 h) 4.35 ± 0.38.
SPPGSTKRRKSMSGASPKESTNPE [CDC25A]: the protein stability index by setting is: (treatment: DMSO) 5.47 ± 0.11; (treatment: MLN4924 1 uM, 8 h) 5.4 ± 0.21.
Turning to SPSGAALPLPLSLAPPPLPLPAAA [ZBTB22], the protein stability index (treatment: DMSO) turned out to be 3.92 ± 0.25 and the protein stability index (treatment: MLN4924 1 uM, 8 h) turned out to be 4.2 ± 0.29.
The matching figures for SQEPDPVQRLQAYTATEQEMQQQM [TRIM14]: 5.39 ± 0.15 and 5.17 ± 0.14.
For SQFSGTLMRTCERLVKEGRFVPSN [PPTC7], the protein stability index reads like this: (treatment: DMSO) 3.12 ± 0.17; (treatment: MLN4924 1 uM, 8 h) 3.04 ± 0.4.
The matching figures for SQPATPTPLQSRTSIVQAAAGGVP [PDLIM7]: 4.6 ± 0.25 and 4.6 ± 0.19.
With SQTDRGASAGKRRCFWLGMEGLET [SDE2], the protein stability index turned out to be 2.87 ± 0.45 (treatment: DMSO) and 2.96 ± 0.14 (treatment: MLN4924 1 uM, 8 h).
The matching figures for SREMLQQSKILKVIRKNIVKKCLE [HSP90AB1]: 2.56 ± 0.31 and 2.42 ± 0.57.
The matching figures for SRFSSSTEQSSASRLMRRHKRRRR [DVL3]: 5.17 ± 0.084 and 5.257 ± 0.022.
The matching figures for SRGACTSHDPQSSRGSRRRRRQRS [KCNA4]: 5.39 ± 0.4 and 5.53 ± 0.32.
For the sequence SRGTSQTPNASSPGNPTALANGTV [LPCAT4], the protein stability index was determined as 4.73 ± 0.051 (treatment: DMSO) and 4.77 ± 0.068 (treatment: MLN4924 1 uM, 8 h).
The matching figures for SRKKPIWNVLMWTSLFLGNGVLLC [SOAT1]: 2.67 ± 0.81 and 2.73 ± 0.61.
The matching figures for SRRLQLGSEENGRYFSLSLMSGAL [PCDHGC5]: 2.27 ± 0.4 and 2.3 ± 0.35.
The matching figures for SRTVRQFQFTDWPEQGVPKSGEGF [PTPRD]: 3.88 ± 0.25 and 4.02 ± 0.68.
Consider SRVNNASYCPHCGEESSKAKEVTI [EHMT1], for which the protein stability index runs as follows: (treatment: DMSO) 3.39 ± 0.14; (treatment: MLN4924 1 uM, 8 h) 3.37 ± 0.32.
The matching figures for SSCTHVTGNYRKGNAHLGYSLVTH [ADAMTSL2]: 2.92 ± 0.7 and 2.77 ± 0.42.
Turning to SSEAFHNYMNAAMVHINRALKLII [RTN3], the protein stability index (treatment: DMSO) was found to be 2.62 ± 0.46 and the protein stability index (treatment: MLN4924 1 uM, 8 h) amounted to 2.06 ± 0.38.
With SSFSRPLGYPYVNSVSSHASSPYI [DLX1], the protein stability index came to 2.62 ± 0.18 (treatment: DMSO) and 2.79 ± 0.51 (treatment: MLN4924 1 uM, 8 h).
In the case of SSGCFMEYLENQVIKDKDDSVDAQ [RNF180], the protein stability index by setting is: (treatment: DMSO) 4.59 ± 0.21; (treatment: MLN4924 1 uM, 8 h) 4.63 ± 0.19.
As for SSKSRAAPSPQEALVRLRETEEML [CHMP4C], the protein stability index was 2.79 ± 0.58 (treatment: DMSO) and 3.45 ± 0.81 (treatment: MLN4924 1 uM, 8 h).
On to SSPPQGASPVPESSLTADLLSVDA [SNAP91], for which the protein stability index is, setting by setting: (treatment: DMSO) 5.28 ± 0.18; (treatment: MLN4924 1 uM, 8 h) 5.34 ± 0.16.
Consider SSPQGKSGPEAARAGGWVSGEEFY [PKD2L1], for which the protein stability index by setting is: (treatment: DMSO) 4.51 ± 0.2; (treatment: MLN4924 1 uM, 8 h) 4.54 ± 0.17.
Regarding SSSASYGGGFGGGSCQLGGGRGVS [KRT13], the protein stability index by setting is: (treatment: DMSO) 3.71 ± 0.65; (treatment: MLN4924 1 uM, 8 h) 3.94 ± 0.36.
Regarding SSSKGTIRLCDMRASALCDRHTKF [PPP2R2B], the protein stability index reads like this: (treatment: DMSO) 3.01 ± 0.048; (treatment: MLN4924 1 uM, 8 h) 3.14 ± 0.078.
The matching figures for SSSYAGQFRVIGPRHPIRALVGDE [MOG]: 3.54 ± 0.31 and 3.48 ± 0.32.
As to SSVQSYPGSASLAQSRLEDPGQDL [DLX1], the protein stability index reads like this: (treatment: DMSO) 4.89 ± 0.28; (treatment: MLN4924 1 uM, 8 h) 5.09 ± 0.19.
The matching figures for STATSITLTWDSGNPEPVSYYIIQ [PTPRD]: 2.83 ± 0.59 and 2.9 ± 0.65.
Consider STDIGALMYPSYTFSGDVQLAQDD [MMP1], for which the protein stability index runs as follows: (treatment: DMSO) 4.9 ± 0.13; (treatment: MLN4924 1 uM, 8 h) 4.74 ± 0.28.
STLVEVTLGEVPAAESPDPPQSPQ [MAGEA3]: the protein stability index is, setting by setting: (treatment: DMSO) 5.39 ± 0.14; (treatment: MLN4924 1 uM, 8 h) 5.27 ± 0.17.
The matching figures for SVKKQGETVADVRTLPNASTVDNI [MLH1]: 5.12 ± 0.12 and 5.25 ± 0.14.
The matching figures for SVPMNGTSIQWKNHDQNNHNTDRS [EDNRA]: 4.5 ± 0.29 and 4.92 ± 0.24.
As to SVRILGSLVAILLVFLITAILVKV [SLC29A1], the protein stability index amounted to 2.9 ± 0.44 (treatment: DMSO) and 2.85 ± 0.66 (treatment: MLN4924 1 uM, 8 h).
SVWVLRDFPEDGLKIFTEDLPEVE [VPS39]: the protein stability index by setting is: (treatment: DMSO) 3.55 ± 0.34; (treatment: MLN4924 1 uM, 8 h) 3.59 ± 0.33.
The matching figures for SWKESSMNIIELEIPDQNIDVEAL [GMCL1]: 4.26 ± 0.23 and 4.08 ± 0.29.
Regarding SYGGGSASSQHSEGSRSSGSNRSG [DVL3], the protein stability index is, setting by setting: (treatment: DMSO) 5.23 ± 0.081; (treatment: MLN4924 1 uM, 8 h) 5.16 ± 0.29.
The matching figures for SYMRNENVISELNIEDYFSHHLAV [FBXO39]: 2.26 ± 0.23 and 2.4 ± 0.38.

(Values after the supplement of paper PMC10567573.)
